# Test: yeast display, Sf9 membrane polyspecificity reagent, FACS + sequencing; frameworks hold sequencing errors
# In short: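 Using colony PCR, genes from sorted yeast display clones were amplified, then sequenced on MiSeq at 2 × 250 and filtered by CDR length. The clones had been stained with 10% biotinylated, detergent-solubilized Sf9 membrane reagent for 1 hour at 4 °C and sorted by FACS into low and high (top ~1%) gates on anti-HA and streptavidin fluorescence. Polyreactivity labels come from the gate of origin.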
row,Sequence,polyreactivity (PSR sort gate)
1,QVQLVESGGGLVQAGGSLRLSCAASGRIFIDYAMGWYRQAPGKERELVATISESGGSTYYADSVKARFTISRDNAKNTVYLQMNSLKPEDTAVYYCAAVGDNLATAEYDFWGQGTKVTVSS,low polyreactivity
2,QVQLVESGGGLVQAGGSLRLSCAASGRIFIENAMGWYRQAPGKERELVAAISGSGGRTYYADSVKGRFTISRDNAKNTVYLQMNSLKPEDTAVYYCAAVLRTQPRRYDYWGQGTQVTVSS,high polyreactivity
3,QVQLVESGGGLVQAGGSLRLSCAASGRIFIFTYALGWYRQAPGKERELVAAITSSGGSTYYADSVKGRFTISRDNAKNTVYLQMNSLKPEDTAVYYCIAYSYYIVHFIRYEYWGQGTQVTVSS,high polyreactivity
4,QVQLVESGGGLVQAGGSLRLSCAASGRIFIGNAMGWYRQAPGKERELVAAISKRGGSTYYADSVKGRFTISRDNAKNTVYLQMNSLKPEDTAVYYCNKESLYREFDYWGQGTQVTVSS,low polyreactivity
5,QVQLVESGGGLVQAGGSLRLSCAASGRIFIGNAMGWYRQAPGKERELVAAISKRGGSTYYADSVKGRFTISRDNAKNTVYLQMNSLKPEDTAVYYCNTESLYREFDDWGQGTQGTVSS,low polyreactivity
6,QVQLVESGGGLVQAGGSLRLSCAASGRIFINNAMGWYRQAPGKERELVAAINTGGGTNYADSVKGRFTISRDNAKNTVYLEMNSLKPEDSAVYYCAARTYDFRARHKDGYWGQGTQVTVSS,high polyreactivity
7,QVQLVESGGGLVQAGGSLRLSCAASGRIFIPYAMGWYRLAPGKERELVAAISSSAGSSYYADSVKGRFTISRDTAKNTVYLQMKSLKPEDTAVYYCAARLYWWYAFETYSSLFEYDYWGQGTQVTVSS,low polyreactivity
8,QVQLVESGGGLVQAGGSLRLSCAASGRIFITKAMGWYRQAPGKERELVAAIRRRGGNTYYADSVKGRFTISRDNAKNTVYLQMNSLKPEDTAVYYCAVYPRPYKYNYWGQGTQVSVSS,high polyreactivity
9,QVQLVESGGGLVQAGGSLRLSCAASGRIFIYNAMGWYCQAPGKERELVAAINRSGVSTHYADSVKGRFTISRDNAKNTVYLQMNSLKPEDTAVYYCARTDYGARSYDYWGQGTQVTVSS,low polyreactivity
10,QVQLVESGGGLVQAGGSLRLSCAASGRIFIYNAMGWYRPAPGKERELVAAINRSGVSTHYADSVKGRFTISRDNEKNTVYLQMNSLKPEDTAVYYCARTVYGARSYDYWGQGTQVTVSS,low polyreactivity
11,QVQLVESGGGLVQAGGSLRLSCAASGRIFIYNAMGWYRQAPGKEMELVAAISWSGGSTYYADSVKGRFTISRDNAKNTVYLQMNSLKPEDTAVYYCNARYYGPSWNSYDYWGQGTQVTVSS,high polyreactivity
12,QVQLVESGGGLVQAGGSLRLSCAASGRIFIYNAMGWYRQAPGKERELVAAISYSGGRTYYADSVKGRFTISRDNPKNTVYLQMNRLKPEDPAVYYCNAAYRISSAPGYFYFPYNYDYWGQGTQVTVSS,high polyreactivity
13,QVQLVESGGGLVQAGGSLRLSCAASGRIFIYNAMGWYRQATGKERELVAAISYRGGSTYYADSVKGRFTISRDNAKNTVYLQMNSLKPEDTAVYYCNAKIVQYGAHNYWGQGTQVTVSS,high polyreactivity
14,QVQLVESGGGLVQAGGSLRLSCAASGRIFIYNDMGWYRQAPGKERELVAAITFIDDSTNYADSVKGRFTISRDNAKYSVYLQMNRLKPEDTAVYYCAARLYSSASGVRWIKFDYWGQGTQVTVSS,low polyreactivity
15,QVQLVESGGGLVQAGGSLRLSCAASGRIFKFNTMGWYRQAPGKERELVAVITLSGGRTFYADSVKGRFTISRDNAKNTVYLQMNSLKPEDTAVYYCAKDFEGYEGGLSRDDYWGQGTQVTVSS,low polyreactivity
16,QVQLVESGGGLVQAGGSLRLSCAASGRIFKFYDMGWYREAPGKERELVAAISHAGRTNYADSVKGRFTISRDNAKNTVYLQMNSLKPEDTAVYYCNTDYILVRGVPWYYKLDYWGQGTQVTVSS,high polyreactivity
17,QVQLVESGGGLVQAGGSLRLSCAASGRIFKGNAMGWYRQAPGKEREFVAAISQRGGSTYYADSVKGRFTISRDNAKNTVYLQMNSLKPEDTAVYYCAAVRKSVGVKYDYWGQGTQVTVSS,high polyreactivity
18,QVQLVESGGGLVQAGGSLRLSCAASGRIFKGNGMGWYRQAPGKERELVAAISRSGGNTYYADSVKGRFTISRDNAKNTVYLQMNSLKPEDTAVYYCNVRYYTYRFLRFDYWGQGTQVTVSS,high polyreactivity
19,QVQLVESGGGLVQAGGSLRLSCAASGRIFKGYAMGWYRKAPGKERELVAAITISGGSTYYADSVKGRFTISRDNAKNTVYLQMNSLIPEDTAVFYFAARKFVYWYGMEYWGQGTQVTVSS,low polyreactivity
20,QVQLVESGGGLVQAGGSLRLSCAASGRIFKKNAMGWYRQAPGKERELVATITQRGGTTYYADSVKGRFTISRDNAKNTVYLQMNSLKPEDTAVYYCATEGYETWSYWYRGAYTYYYWGQGTQVTVSS,high polyreactivity
21,QVQLVESGGGLVQAGGSLRLSCAASGRIFKNYAMGWYRQAPGKERELVAGITRTGGSTYYADSVKGRFTISRDNAKNTVYLQMNSLKPEDTAVYYCAARPARKLVYWVQGTQVTVSS,high polyreactivity
22,QVQLVESGGGLVQAGGSLRLSCAASGRIFKPYAMGWYRQAPGKERELVAAITDGGTTYYADSVKGRFTISRDNAKNTVYLQMNSLKPEDTAVYYCAADLGKLRYDYWGPGTQVTVSS,low polyreactivity

row,Sequence,polyreactivity (PSR sort gate)
1,QVQLVESGGGLVQAGGSLRLSCAASGRIFKQYAMGWYRQAPGKERELVAAISVRGGITYYADSVKGRFTISRDNAKNTVYLQMNSLKPEDTAVYYCAKRSYRTHTYDYWGQGTQVTVSS,low polyreactivity
2,QVQLVESGGGLVQAGGSLRLSCAASGRIFKRYAMGWYRQAPGKERELVAAISKSGGSTYYADSVKGRFTISRDNAKNTVYLQMNSLKPEDTAVYYCNADPVRSGLDYWGQGTQVTVSS,high polyreactivity
3,QVQLVESGGGLVQAGGSLRLSCAASGRIFKRYAMGWYRQAPGKERELVAAISRGASTYYADSVKGRFTISRDNAKNTVYLQMNSLKPEDTAVYYCAAKGATPHYDYWGQGTQVTVSS,high polyreactivity
4,QVQLVESGGGLVQAGGSLRLSCAASGRIFKRYAMGWYRQAPGKERELVASITTSGDSTYYADSVKGRFTISRDNAKNTVYLQMNSLKPEDTAVYYCAARSYRGRRYDYWGQGTQVTVSS,high polyreactivity
5,QVQLVESGGGLVQAGGSLRLSCAASGRIFKRYVMGWYRQAPGKERELVAAISQRGGSTNYADSVKGRFTISRDNAKNTVYLQMNSLKPEDTAVYYCAAGFFSRYDYWGQGTQVTVSS,high polyreactivity
6,QVQLVESGGGLVQAGGSLRLSCAASGRIFKSDGMGWYREAPGKERELVATISSSGDSTYYADSVKGRFTISRDNAKNTVYLQMNSLKPDDTAVYHCAKRARYKFGYWGQGTQVTVSS,high polyreactivity
7,QVQLVESGGGLVQAGGSLRLSCAASGRIFKSYAMGWYRQAPGKERELVAAISRGGRTNYADSVKGRFTISRDNAKNTVYLQMNSLKPEVTAVYYCAARFVVQGHSSPYDYWGQGTQVTVSS,high polyreactivity
8,QVQLVESGGGLVQAGGSLRLSCAASGRIFKSYAMGWYRQSPGKERELVAIIRSSGTTYYADSVKGRFTISRDNAKNTVYLQMNSLKPEDTAVYYCAADPYYWRQFNYDYWGQGTQVTVSS,high polyreactivity
9,QVQLVESGGGLVQAGGSLRLSCAASGRIFKTNAMGWYRQAPGKERELVAAISRSGSRTSYADSVKGRFTISRDNAKNTVYLQMNSLKPEDTAVYYCATRGLYWKVGYWGQGTQVTVSS,high polyreactivity
10,QVQLVESGGGLVQAGGSLRLSCAASGRIFKTYAMGWYRPAPGTERELVAGISWRGGSTYYADSVKGRFTISRDNAKNTVYLQMNSLKPEDTAVYYCAADDTYTRYDYWGQGTQVTVSS,high polyreactivity
11,QVQLVESGGGLVQAGGSLRLSCAASGRIFKTYAMGWYRQAPGKERELVAGISWRGGSTYYADSVKGRFTISRDNAKNTVYLQMNSLKPEDTAVYYCAADDTYTRYDYWGQGTQVTVSS,high polyreactivity
12,QVQLVESGGGLVQAGGSLRLSCAASGRIFKVYAMGWYIQAPGKERELVAVISRGGSTYYADSVKGRFTISRDNAKNTVYLQMNSLKPEDTAVYYCAARLTYTGGQGAYDYWGQGTQVTVSS,high polyreactivity
13,QVQLVESGGGLVQAGGSLRLSCAASGRIFKVYAMGWYRQAPGKERDLVAVISRGGSTYYADSVKGRFTISRDNAKNTVYLQMKSLKPEDTAVYYCAARLTYTGGQGAYDYWGQGTQVTVSS,high polyreactivity
14,QVQLVESGGGLVQAGGSLRLSCAASGRIFKVYAMGWYRQAPGKERELVAAITWSGVSTYADSVKGRFTISRDNAKNTVYLQMNSLKPEDTAVYYCAAYLRSPGDRQGYYYWGQGTQVTVSS,high polyreactivity
15,QVQLVESGGGLVQAGGSLRLSCAASGRIFKWYAMGWYRQAPGKERELVAAITWRGGSTNYADSVKGRFTISRDNAKNTVYLQMNSLKPEDTAVYYCAVGTVFLTYRGYEYWGQGTQVTVSS,high polyreactivity
16,QVQLVESGGGLVQAGGSLRLSCAASGRIFKYNAMGWSIQAPGKERELVAAISSGGSTKYADSVKGRFTISRDNAKNTVYLQMNSLKPEDTAVYYCNAVYTPYRRSFYYWGHGTQVTVSS,high polyreactivity
17,QVQLVESGGGLVQAGGSLRLSCAASGRIFKYNAMGWYIQAPGKERELVAVITSGGSTYYADSVKGRFTISRDNEKNTVYLQMNSLKPDDTEVYYCAKKYYKVHKFDYWGQGTQVTVSS,low polyreactivity
18,QVQLVESGGGLVQAGGSLRLSCAASGRIFKYNAMGWYRQAPGKERELVAAISSSGGSTYYADSVKGRFTISRDNAKNTVYLQMNSLKPEDTAVYYCAARYAPTLSVYRFYYWGQGTQVTVSS,high polyreactivity
19,QVQLVESGGGLVQAGGSLRLSCAASGRIFKYYAKGWYIQAPGKERELVAAINRDGGRTYYADSVKGRFTISRDNAKNTVYLQMNSLKPEDTAVYYCAASYGYVYTTSLDYWGQGTQVTVSS,low polyreactivity
20,QVQLVESGGGLVQAGGSLRLSCAASGRIFKYYAMGWYRQAPGKERELVAAISGTGGGTYYADSVKGRFTISRDNAKNTVYLQMNSLKPEDTAVYYCAALHQAYRGFDYWGQGTQVSVSS,high polyreactivity
21,QVQLVESGGGLVQAGGSLRLSCAASGRIFKYYAMGWYRQAPGKERELVAAISWTGVSTYYADSVKGRFTISRDNAKNTVYLQMNSLKPEDTAVYYCNAQSYRYPKDDYWGQGTQVTVSS,high polyreactivity
